# Key:
# [1] = molecular target: T1, human serum amyloid P component (SAP) (human, UniProt P02743 20-223); assay: ELISA, human SAP directly immobilised at 1 µg/mL
# T1 construct: Purified from human material; In some assays it stood denatured (reduced SDS-PAGE); this is said under assay; also called human SAP; homo sapiens SAP
# cynomologus monkey SAP = molecular target: T2, cynomologus monkey SAP (cynomolgus monkey, UniProt A0A7N9DA00 20-223); assay: Biacore, cyno SAP amine-coupled on C1 chip, culture supernatant
# T2 construct: also called cyno SAP; cynomolgus monkey serum amyloid P component
# T2 sequence (A0A7N9DA00 entry or part of it): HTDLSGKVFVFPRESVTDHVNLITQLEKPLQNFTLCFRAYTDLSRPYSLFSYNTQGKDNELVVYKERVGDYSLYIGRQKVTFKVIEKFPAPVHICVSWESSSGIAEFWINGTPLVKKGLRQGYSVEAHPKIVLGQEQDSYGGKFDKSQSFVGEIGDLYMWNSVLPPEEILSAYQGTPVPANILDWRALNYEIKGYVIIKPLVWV
# T1 sequence (P02743 20-223, form in doubt): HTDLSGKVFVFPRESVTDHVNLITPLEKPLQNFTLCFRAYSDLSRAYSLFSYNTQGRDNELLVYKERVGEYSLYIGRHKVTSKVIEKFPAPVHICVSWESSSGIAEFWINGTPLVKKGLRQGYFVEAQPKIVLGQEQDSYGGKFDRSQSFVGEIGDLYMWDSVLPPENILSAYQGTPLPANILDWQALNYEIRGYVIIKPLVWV
fold loss of human SAP binding activity compared to SAP-K chimera [1] [fold],binding result (cynomologus monkey SAP),Binder
~2,,"SAP-K H1L0 humanised antibody (antibody, V domains shown) VH: QVQLVQSGAEVKKPGSSVKVSCKASGYTFTSYWMHWVRQAPGQGLEWMGMIHPNSVNTNYNEKFKSRVTITADKSTSTAYMELSSLRSEDTAVYYCARRNDYYWYFDVWGQGTLVTVSS VL: DIQMTQSPSSLSASVGDRVTITCKASQNVNSNVAWYQQKPGKAPKLLIYSASYRYSGVPSRFSGSGSGTDFTLTISSLQPEDFATYYCQQCNNYPFTFGQGTKLEIK"
~2,,"SAP-K H2L0 humanised antibody (antibody, V domains shown) VH: QVQLVQSGAEVKKPGSSVKVSCKASGYTFTSYWMHWVRQAPGQGLEWIGMIHPNSVNTNYNEKFKSRATITADKSTSTAYMELSSLRSEDTAVYYCARRNDYYWYFDVWGQGTLVTVSS VL: DIQMTQSPSSLSASVGDRVTITCKASQNVNSNVAWYQQKPGKAPKLLIYSASYRYSGVPSRFSGSGSGTDFTLTISSLQPEDFATYYCQQCNNYPFTFGQGTKLEIK"
~2,no binding,"SAP-K H0L0 humanised antibody (antibody, V domains shown, also called SAP-K HOLO) VH: QVQLVQSGAEVKKPGSSVKVSCKASGGTFSSYWMHWVRQAPGQGLEWMGMIHPNSVNTNYNEKFKSRVTITADKSTSTAYMELSSLRSEDTAVYYCARRNDYYWYFDVWGQGTLVTVSS VL: DIQMTQSPSSLSASVGDRVTITCKASQNVNSNVAWYQQKPGKAPKLLIYSASYRYSGVPSRFSGSGSGTDFTLTISSLQPEDFATYYCQQCNNYPFTFGQGTKLEIK"
